From patent US20060199251

Tests used:
[1] = target: T1, Ac-IEPD-pNA (N-acetyl-L-isoleucyl-L-glutamyl-L-prolyl-L-aspartyl-p-nitroaniline)
T1 chain: IEPD

Sequence of H6-IEGR-RAP (P30533 whole entry): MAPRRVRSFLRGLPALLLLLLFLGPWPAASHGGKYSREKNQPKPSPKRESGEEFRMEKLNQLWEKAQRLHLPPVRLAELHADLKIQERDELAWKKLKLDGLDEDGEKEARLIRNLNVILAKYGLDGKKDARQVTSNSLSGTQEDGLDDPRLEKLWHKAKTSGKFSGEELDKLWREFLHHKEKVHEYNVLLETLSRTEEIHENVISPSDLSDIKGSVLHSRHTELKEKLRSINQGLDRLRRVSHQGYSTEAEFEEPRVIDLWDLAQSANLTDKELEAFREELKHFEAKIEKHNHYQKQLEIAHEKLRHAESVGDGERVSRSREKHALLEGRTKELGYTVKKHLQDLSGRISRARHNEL

B1: GrB-H6 C228F (activated human Granzyme B variant, Cys228 (chymotrypsinogen numbering) to Phe, C-terminal hexa-His tag) (protein)
chain: MGSIEPDIIGGHEAKPHSRPYMAYLMIWDQKSLKRCGGFLIQDDFVLTAAHCWGSSINVTLGAHNIKEQEPTQQFIPVKRPIPHPAYNPKNFSNDIMLLQLERKAKRTRAVQPLRLPSNKAQVKPGQTCSVAGWGQTAPLGKHSHTLQEVKMTVQEDRKCESDLRHYYDSTIELCVGDPEIKKTSFKGDSGGPLVCNKVAQGIVSYGRNNGMPPRAFTKVSSFVHWIKKTMKRYLNSHHHHHH
cleavage of fusion protein, SDS PAGE, 6 hours, protease:fusion protein 1:500 (H6-TripUB IEPD↓EG): after only 6 hours the cleavage has been completed
time to complete cleavage, protease to substrate ratio 1:500 (H6-TripUB IEPD↓EG): it takes less than 5 hours for GrB-H6 C228F to complete the cleavage of H6-TripUbi IEPD↓EG
fusion protein cleaved, SDS PAGE, 6 hours at 23° C., protease:substrate 1:1000 (H6Ubi-IEPD-ApoA1): The GrB substrate, H6Ubi-IEPD-ApoA1, is approximately 100% cleaved after only 6 hours incubation at 23 °C
cleavage by immobilized enzyme, non-reducing SDS-PAGE, room temperature over night (H6-TripUB IQAD↓SG): For all twelve cleavage experiments the fusion proteins are cleaved to give a single product corresponding to TripUbi moiety from which the H6 fusion partner has been cleaved off
cleavage of fusion protein, SDS PAGE, 96 hours at 23° C., protease:fusion protein 1:500 (H6-TripUB IEPD↓SP): the cleavage is almost 100% complete after 96 hours
fusion protein cleaved, SDS PAGE, 48 hours at 21° C., protease:fusion protein 1:500 (H6-TripUB IEPD↓SP): After 48 hours approximately 40% has been cleaved at 21 °C
fusion protein cleaved, SDS PAGE, 48 hours at 21° C., protease:fusion protein 1:500 (H6-TripUB IEPD↓EP): after 48 hours at 21 °C approximately 35-40% has been cleaved
fusion protein cleaved, SDS PAGE, 50 hours at 21° C., protease:fusion protein 1:500 (H6-TripUB IEPD↓EP): after 50 hours at 21 °C approximately 40% has been cleaved
cleavage of fusion protein, SDS PAGE, 24 hours at 23° C., protease:fusion protein 1:500 (H6-TripUB IEPD↓IV): This is also the case for the cleavage of H6-TripUB IEPD↓IV (app. 100% completed after only 24 hours)
cleavage of fusion protein, SDS PAGE, 24 hours at 23° C., protease:fusion protein 1:500 (H6-TripUB IEPD↓TQ): this is app. 100% completed after only 24 hours
KM (µM), colorimetric assay, Lineweaver-Burk plot, 100 mM HEPES pH 7.75, 20 nM enzyme [1]: 27 µM
kcat [1]: 4.85 s⁻¹
kcat/KM (10^4 s^-1M^-1) [1]: 180000 s^-1M^-1
cleavage by immobilized enzyme, non-reducing SDS-PAGE, room temperature over night (H6-TripUB IQAD↓SP): For all twelve cleavage experiments the fusion proteins are cleaved to give a single product corresponding to TripUbi moiety from which the H6 fusion partner has been cleaved off

B2: purified bovine blood clotting factor Xa (protein)
chain: ANSFLEEVKQGNLERECLEEACSLEEAREVFEDAEQTDEFWSKYKDGDQCEGHPCLNQGHCKDGIGDYTCTCAEGFEGKNCEFSTREICSLDNGGCDQFCREERSEVRCSCAHGYVLGDDSKSCVSTERFPCGKFTQGRSRRWAIHTSEDALDASELEHYDPADLSPTESSLDLLGLNRTEPSAGEDGSQVVRIVGGRDCAEGECPWQALLVNEENEGFCGGTILNEFYVLTAAHCLHQAKRFTVRVGDRNTEQEEGNEMAHEVEMTVKHSRFVKETYDFDIAVLRLKTPIRFRRNVAPACLPEKDWAEATLMTQKTGIVSGFGRTHEKGRLSSTLKMLEVPYVDRSTCKLSSSFTITPNMFCAGYDTQPEDACQGDSGGPHVTRFKDTYFVTGIVSWGEGCARKGKFGVYTKVSNFLKWIDKIMKARAGAAGSRGHSEAPATWTVPPPLPL
cleavage of fusion protein, SDS PAGE, ½ hour at 23° C., protease:fusion protein 1:1000 (H6-IEGR-RAP): After only ½ hour almost all of the fusion protein had been cleaved to give the correct product for both incubations
degradation of fusion protein, SDS PAGE, 27 hours at 23° C. (H6-IEGR-RAP): all of the fusion protein had been degraded to give a variety of smaller fragments after 27 hours, and there is no correctly cleaved product left
fusion protein cleaved, SDS PAGE, 6 hours at 23° C., protease:substrate 1:1000 (H6Ubi-IEGR-ApoA1): only a small fraction of the FXa substrate, H6Ubi-IEGR-ApoA1, has been cleaved after 6 hours
time to complete cleavage, 23° C., protease:substrate 1:1000 (H6Ubi-IEGR-ApoA1): FXa requires more than 48 hours to complete the cleavage of the FXa substrate
